Molecular target: TrkA
Assay: in situ PLA, anti-Trk plus anti-total IRS1
Settings: sites Y608

Sequence of IRS1 (P35570 whole entry, looked up, change not shown): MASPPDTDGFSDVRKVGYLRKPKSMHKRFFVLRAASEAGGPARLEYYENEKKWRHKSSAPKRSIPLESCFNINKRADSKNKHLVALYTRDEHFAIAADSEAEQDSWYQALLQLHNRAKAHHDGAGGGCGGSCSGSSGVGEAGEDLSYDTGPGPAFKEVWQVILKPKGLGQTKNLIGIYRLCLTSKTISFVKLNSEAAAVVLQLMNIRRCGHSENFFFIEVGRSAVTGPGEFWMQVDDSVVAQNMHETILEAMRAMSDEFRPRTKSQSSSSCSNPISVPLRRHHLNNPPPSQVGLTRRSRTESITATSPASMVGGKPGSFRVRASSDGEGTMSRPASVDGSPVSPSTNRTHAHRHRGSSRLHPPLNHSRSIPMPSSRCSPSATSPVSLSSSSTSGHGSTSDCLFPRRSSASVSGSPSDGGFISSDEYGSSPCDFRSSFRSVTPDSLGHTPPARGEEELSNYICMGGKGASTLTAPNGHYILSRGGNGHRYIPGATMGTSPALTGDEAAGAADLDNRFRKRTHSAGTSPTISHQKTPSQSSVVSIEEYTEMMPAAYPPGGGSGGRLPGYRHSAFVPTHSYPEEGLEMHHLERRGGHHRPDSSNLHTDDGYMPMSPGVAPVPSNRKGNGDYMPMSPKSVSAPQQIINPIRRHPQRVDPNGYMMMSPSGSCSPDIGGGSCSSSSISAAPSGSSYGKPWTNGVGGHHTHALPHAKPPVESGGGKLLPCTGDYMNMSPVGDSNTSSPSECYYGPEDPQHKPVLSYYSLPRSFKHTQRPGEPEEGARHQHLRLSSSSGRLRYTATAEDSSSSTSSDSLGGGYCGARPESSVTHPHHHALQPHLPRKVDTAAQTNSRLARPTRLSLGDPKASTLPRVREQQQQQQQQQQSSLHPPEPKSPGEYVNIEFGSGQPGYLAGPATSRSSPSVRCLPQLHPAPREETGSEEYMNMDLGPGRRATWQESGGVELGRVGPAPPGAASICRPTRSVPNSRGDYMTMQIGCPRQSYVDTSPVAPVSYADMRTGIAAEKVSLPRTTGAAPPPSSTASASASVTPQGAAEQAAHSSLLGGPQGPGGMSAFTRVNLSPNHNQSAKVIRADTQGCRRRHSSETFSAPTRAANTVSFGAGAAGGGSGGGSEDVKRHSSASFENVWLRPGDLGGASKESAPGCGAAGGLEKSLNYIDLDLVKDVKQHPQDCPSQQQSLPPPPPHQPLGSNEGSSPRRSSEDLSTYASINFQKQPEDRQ

Row | other: PLA dots per neuron (reference: untreated neurons (CTR)) | other: PLA dots per neuron (reference: NGF-treated neurons) | Substance
1 | stronger; reference 50.6 ± 5.9 | – | IRS1 (from UniProt P35570) NGF 100 ng/ml, 30 min
2 | – | weaker; reference 121.5 ± 16.4 | IRS1 (from UniProt P35570) NGF after NT157 preincubation (10 µM, 2 h)
